Data: patent US20180142032A1 (Sanofi, published 2018)

Legend:
[1] = biological target: T1, LAMP1::histag (human, UniProt P11279 29-382); experiment: ELISA
T1 construct: extracellular domain without signal peptide, C-terminal 6 His tag, made in HEK293 cells; also called recombinant human LAMP1; human LAMP1 (29-382)
T1 sequence: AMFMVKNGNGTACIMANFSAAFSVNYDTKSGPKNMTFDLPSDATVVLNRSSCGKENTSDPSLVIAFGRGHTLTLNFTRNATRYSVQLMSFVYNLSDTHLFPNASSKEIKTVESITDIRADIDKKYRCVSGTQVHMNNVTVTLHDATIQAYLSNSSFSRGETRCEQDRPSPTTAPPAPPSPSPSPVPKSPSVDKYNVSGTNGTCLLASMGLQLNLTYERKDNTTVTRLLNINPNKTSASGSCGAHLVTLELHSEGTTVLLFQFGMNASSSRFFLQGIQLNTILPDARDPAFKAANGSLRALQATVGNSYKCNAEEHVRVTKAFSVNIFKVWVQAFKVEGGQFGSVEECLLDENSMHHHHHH

[2] = biological target: T2, mLAMP1::histag (mouse, UniProt P11438 25-369); experiment: ELISA
T2 construct: also called mouse LAMP1 (25-369); Mouse LAMP1
T2 sequence: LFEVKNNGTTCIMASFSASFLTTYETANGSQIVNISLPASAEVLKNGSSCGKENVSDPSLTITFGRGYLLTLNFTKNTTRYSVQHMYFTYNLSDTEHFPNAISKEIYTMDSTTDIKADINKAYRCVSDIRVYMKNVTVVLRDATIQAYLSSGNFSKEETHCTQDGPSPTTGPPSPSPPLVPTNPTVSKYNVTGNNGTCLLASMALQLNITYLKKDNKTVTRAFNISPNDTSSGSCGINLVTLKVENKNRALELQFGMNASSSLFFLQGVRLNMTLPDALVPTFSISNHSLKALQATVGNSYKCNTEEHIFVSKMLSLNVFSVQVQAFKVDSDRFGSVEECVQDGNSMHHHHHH

[3] = biological target: T3, recombinant human LAMP2 with a C-terminal 10 His-tag (human, UniProt P13473 29-375); experiment: ELISA on coated LAMP2
T3 construct: bought; also called soluble LAMP2 protein (R&D Systems 6228-LM)
Experimental: LAMP2 is the closest member of the LAMP family with 35% sequence identity to LAMP1. […] Anti-LAMP1 antibodies were added to the plates and detected by using rabbit anti-mouse IgG conjugated with horseradish peroxidase (Sigma; #A9044). Antibody binding was visualized by adding TMB-H₂O₂ buffer and read at a wavelength of 450 nm.

[4] = biological target: T1, LAMP1::histag; experiment: SPR (BIAcore 2000), mAb captured by anti-Fc, LAMP1 injected 1 to 256 nM
Experimental: The binding kinetics of the murine, chimer or humanized anti-LAMP1 mAbs were determined by surface plasmon resonance assay using a BIAcore 2000 (BIAcore Inc., Uppsala, N.J.). […] A mouse anti-αhuman Fc IgG1 (BIAcore #BR-1008-39) and rabbit anti-αmurine Fc IgG1 (BIAcore #BR-1008-38) (50 μg/mL in […], pH5) were immobilized on the activated chips in all flow cells. The immobilization was carried out at a flow rate of 10 μL/min up to saturation. The chip was then blocked by injection of 70 μL of ethanolamine-HCl, pH 8.5, followed by one wash with 3 M MgCl₂ for anti-αhuman Fc IgG1 and one wash with 10 mM Glycine-HCl pH 1.7 for anti-αmurine Fc IgG1. To measure the binding of anti-LAMP1 mAbs to LAMP1, antibodies were used at 1-5 μg/mL in BIAcore running buffer (HBS-EP). […] Following completion of the injection phase, dissociation was monitored in a BIAcore running buffer at the same flow rate for 600 sec. […] Individual sensorgrams were analyzed using BIAevaluation software.

[5] = biological target: T1, LAMP1::histag; experiment: ELISA on recombinant human LAMP1
[6] = biological target: T1, LAMP1::histag; experiment: ELISA with LAMP1
[7] = biological target: T4, LAMP1_mseq1_ΔGYQTI (mouse; human); experiment: flow cytometry, transfected 293-F cells
T4 construct: on cells; also called pXL6012

[8] = biological target: T5, LAMP1_mseq2_ΔGYQTI (human; mouse); experiment: flow cytometry, transfected 293-F cells
T5 construct: on cells; also called pXL6013

[9] = biological target: T6, LAMP1_mseq3_ΔGYQTI (human; mouse); experiment: flow cytometry, transfected 293-F cells
T6 construct: on cells; also called pXL6014

[10] = biological target: T7, hLAMP1_ΔGYQTI (human, UniProt P11279 29-412); experiment: flow cytometry, transfected 293-F cells
T7 construct: also called pXL5626
T7 sequence: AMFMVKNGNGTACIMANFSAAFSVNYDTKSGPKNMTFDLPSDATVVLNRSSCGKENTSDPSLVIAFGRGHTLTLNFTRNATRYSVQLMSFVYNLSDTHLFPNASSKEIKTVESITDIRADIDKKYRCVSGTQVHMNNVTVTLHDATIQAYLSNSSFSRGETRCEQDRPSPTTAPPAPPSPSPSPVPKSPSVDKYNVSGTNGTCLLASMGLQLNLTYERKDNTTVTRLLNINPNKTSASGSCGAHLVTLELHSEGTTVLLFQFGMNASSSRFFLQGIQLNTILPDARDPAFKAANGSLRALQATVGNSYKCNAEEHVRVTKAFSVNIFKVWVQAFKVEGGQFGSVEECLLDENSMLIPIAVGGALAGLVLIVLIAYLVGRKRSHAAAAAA

[11] = biological target: T8, LAMP1_mseq5_ΔGYQTI (human; mouse); experiment: flow cytometry, transfected 293-F cells
T8 construct: on cells; also called pXL6017

T3 sequence (P13473 other isoform, or with tags, fused parts or gaps): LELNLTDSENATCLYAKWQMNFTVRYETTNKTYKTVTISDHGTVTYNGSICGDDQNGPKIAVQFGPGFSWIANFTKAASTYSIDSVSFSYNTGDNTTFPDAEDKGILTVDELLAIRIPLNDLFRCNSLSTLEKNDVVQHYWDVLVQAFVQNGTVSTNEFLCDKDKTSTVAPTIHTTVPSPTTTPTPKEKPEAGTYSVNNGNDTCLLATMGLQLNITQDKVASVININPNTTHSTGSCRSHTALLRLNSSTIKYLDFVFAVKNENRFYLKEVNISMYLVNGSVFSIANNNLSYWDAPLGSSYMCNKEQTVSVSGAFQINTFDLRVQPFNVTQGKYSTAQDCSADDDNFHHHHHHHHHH

Binder | EC50 [1] | binding result [2] | binding result [3] | Kd [4] | EC50 [5] | EC50 [6] | mean fluorescence [7] | mean fluorescence [8] | mean fluorescence [9] | mean fluorescence [10] | mean fluorescence [11]
MAb1 (antibody, mouse IgG2a, kappa, murine monoclonal IgG, kappa, from hybridoma; also called murine MAb1) heavy: QVQLQQSGAELVKPGASVKMSCKASGYIFTNYNIHWVKKSPGQGLEWIGAIYPGNGDAPYSQKFKDKATLTADKSSSTTYMQLSRLTSEDSAVYYCVRANWDVAFAYWGQGTLVSVSAAKTTAPSVYPLAPVCGDTTGSSVTLGCLVKGYFPEPVTLTWNSGSLSSGVHTFPAVLQSDLYTLSSSVTVTSSTWPSQSITCNVAHPASSTKVDKKIEPRGPTIKPCPPCKCPAPNLLGGPSVFIFPPKIKDVLMISLSPIVTCVVVDVSEDDPDVQISWFVNNVEVHTAQTQTHREDYNSTLRVVSALPIQHQDWMSGKEFKCKVNNKDLPAPIERTISKPKGSVRAPQVYVLPPPEEEMTKKQVTLTCMVTDFMPEDIYVEWTNNGKTELNYKNTEPVLDSDGSYFMYSKLRVEKKNWVERNSYSCSVVHEGLHNHHTTKSFSRTPGK light: DIQMTQSPPSLSASLGGKVTITCKASQDIDRYMAWYQDKPGKGPRLLIHDTSTLQPGIPSRFSGSGSGRDYSFSISNLEPEDIATYYCLQYDNLWTFGGGTKLEIKRADAAPTVSIFPPSSEQLTSGGASVVCFLNNFYPKDINVKWKIDGSERQNGVLNSWTDQDSKDSTYSMSSTLTLTKDEYERHNSYTCEATHKTSTSPIVKSFNRNEC | 0.18 nM | no binding | no binding | 4.8 nM | 0.18 nM | 0.18 nM | 1030 | 990 | 888 | 914 | 846
MAb3 (antibody, V domains shown, murine monoclonal IgG, kappa, from hybridoma; also called murine MAb3) VH: QIQLVQSGPELKKPGETVKISCKASGYIFTNYGMNWVKQAPGKGLKWMGWINTYTGESRYADDFKGRFALSLETSASTAYLQINNLENEDMATYFCAREDYYGNSPWFFDVWGAGTTVTVSS VL: DIQMTQTTSSLSASLGDRVTISCNASQGINKYLNWYQQKPDGTVKLLIYYTSTLHSGVPSRFSGSGSGTDYSLTINNLEPEDIATYYCQQYTKLPFTFGSGTKLEIK |  |  | no binding | 4.7 nM |  |  |  | 803 | 674 | 749 | 721
huMAb1_1 (antibody, human IgG1, kappa, humanized, VH1-huIgG1 and VL1-huCk) heavy: not shown light: DIQMTQSPSSLSASVGDRVTITCKASQDIDRYMAWYQDKPGKAPRLLIHDTSTLQSGVPSRFSGSGSGRDYTLTISNLEPEDFATYYCLQYDNLWTFGGGTKVEIKRTVAAPSVFIFPPSDEQLKSGTASVVCLLNNFYPREAKVQWKVDNALQSGNSQESVTEQDSKDSTYSLSSTLTLSKADYEKHKVYACEVTHQGLSSPVTKSFNRGEC |  |  |  | 8.2 nM |  |  |  |  |  |  | 
MAb2 (antibody, mouse IgG1, kappa, murine monoclonal IgG, kappa, from hybridoma; also called murine MAb2) heavy: QVQLQQSAAELARPGASVKMSCKASGYTFTSYTMHWVKQRPGQGLEWIGYFNPSSGYPEYNQKFKDKTTLTADKSSNTAFIQLNSLTSEDSAVYYCSRGYYYGSRGYALDFWGQGASVTVSSAKTTPPSVYPLAPGSAAQTNSMVTLGCLVKGYFPEPVTVTWNSGSLSSGVHTFPAVLQSDLYTLSSSVTVPSSTWPSETVTCNVAHPASSTKVDKKIVPRDCGCKPCICTVPEVSSVFIFPPKPKDVLTITLTPKVTCVVVDISKDDPEVQFSWFVDDVEVHTAQTQPREEQFNSTFRSVSELPIMHQDWLNGKEFKCRVNSAAFPAPIEKTISKTKGRPKAPQVYTIPPPKEQMAKDKVSLTCMITDFFPEDITVEWQWNGQPAENYKNTQPIMDTDGSYFVYSKLNVQKSNWEAGNTFTCSVLHEGLHNHHTEKSLSHSPGK light: NIVLTQSPVSLAVSLGQRATISCRASESVDINGNTFMHWYQQKPGQSPKLVIYAASNIESGVPARFSGSGSSTDFTFTIDPVEADDVATYYCQQNIEDPWTFGGGTKVEIKRADAAPTVSIFPPSSEQLTSGGASVVCFLNNFYPKDINVKWKIDGSERQNGVLNSWTDQDSKDSTYSMSSTLTLTKDEYERHNSYTCEATHKTSTSPIVKSFNRNEC | 0.25 nM | no binding | no binding | 63.5 nM | 0.25 nM | 0.25 nM | 105 | 694 | 694 | 757 | 629
